What all share (experiment): SPR, 37C, pH 7.4
The target of assay [1] is T1, Human CEACAM5 V83A (human, UniProt P06731 35-685, limits assumed).
T1 sequence: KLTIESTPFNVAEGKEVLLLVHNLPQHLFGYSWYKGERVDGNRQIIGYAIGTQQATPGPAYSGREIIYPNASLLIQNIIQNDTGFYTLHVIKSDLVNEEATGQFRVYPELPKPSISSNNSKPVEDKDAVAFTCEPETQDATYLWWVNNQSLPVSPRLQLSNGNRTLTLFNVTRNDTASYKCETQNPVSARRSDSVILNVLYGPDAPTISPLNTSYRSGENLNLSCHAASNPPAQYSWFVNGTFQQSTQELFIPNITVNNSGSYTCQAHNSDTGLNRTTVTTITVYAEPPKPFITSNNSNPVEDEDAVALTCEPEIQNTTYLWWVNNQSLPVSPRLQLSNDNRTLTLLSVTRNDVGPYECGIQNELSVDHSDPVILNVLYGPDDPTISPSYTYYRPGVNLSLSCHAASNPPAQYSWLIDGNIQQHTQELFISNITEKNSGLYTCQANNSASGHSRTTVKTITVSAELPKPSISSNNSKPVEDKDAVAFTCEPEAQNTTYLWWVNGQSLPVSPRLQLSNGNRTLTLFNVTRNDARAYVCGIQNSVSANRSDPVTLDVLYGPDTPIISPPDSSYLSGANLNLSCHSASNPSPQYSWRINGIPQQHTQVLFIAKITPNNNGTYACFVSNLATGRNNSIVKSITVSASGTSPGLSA

The target of assay [2] is T2, Human CEACAM5 I113T (human, UniProt P06731 35-685, limits assumed).
T2 sequence: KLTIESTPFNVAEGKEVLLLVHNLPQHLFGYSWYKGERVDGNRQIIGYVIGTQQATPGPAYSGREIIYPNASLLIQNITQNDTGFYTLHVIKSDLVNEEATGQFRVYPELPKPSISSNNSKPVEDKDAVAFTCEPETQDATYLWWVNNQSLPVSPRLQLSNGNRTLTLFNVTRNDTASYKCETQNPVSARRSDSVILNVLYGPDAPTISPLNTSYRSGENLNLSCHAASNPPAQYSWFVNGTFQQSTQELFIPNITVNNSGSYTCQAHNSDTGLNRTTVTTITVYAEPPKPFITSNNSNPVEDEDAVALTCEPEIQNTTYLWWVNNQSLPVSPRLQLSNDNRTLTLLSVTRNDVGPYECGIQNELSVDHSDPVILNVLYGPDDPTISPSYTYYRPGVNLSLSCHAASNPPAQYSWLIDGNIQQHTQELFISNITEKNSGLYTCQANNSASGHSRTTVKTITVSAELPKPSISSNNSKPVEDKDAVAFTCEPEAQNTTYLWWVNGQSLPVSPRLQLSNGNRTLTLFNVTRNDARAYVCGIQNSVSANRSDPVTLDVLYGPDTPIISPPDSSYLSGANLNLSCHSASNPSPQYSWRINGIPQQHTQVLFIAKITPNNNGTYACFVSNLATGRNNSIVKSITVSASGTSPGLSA

Assay [3] deals with T3, Human CEACAM5 (K398) (human, UniProt P06731 35-685, limits assumed).
T3 construct: also called K398 allele
T3 sequence: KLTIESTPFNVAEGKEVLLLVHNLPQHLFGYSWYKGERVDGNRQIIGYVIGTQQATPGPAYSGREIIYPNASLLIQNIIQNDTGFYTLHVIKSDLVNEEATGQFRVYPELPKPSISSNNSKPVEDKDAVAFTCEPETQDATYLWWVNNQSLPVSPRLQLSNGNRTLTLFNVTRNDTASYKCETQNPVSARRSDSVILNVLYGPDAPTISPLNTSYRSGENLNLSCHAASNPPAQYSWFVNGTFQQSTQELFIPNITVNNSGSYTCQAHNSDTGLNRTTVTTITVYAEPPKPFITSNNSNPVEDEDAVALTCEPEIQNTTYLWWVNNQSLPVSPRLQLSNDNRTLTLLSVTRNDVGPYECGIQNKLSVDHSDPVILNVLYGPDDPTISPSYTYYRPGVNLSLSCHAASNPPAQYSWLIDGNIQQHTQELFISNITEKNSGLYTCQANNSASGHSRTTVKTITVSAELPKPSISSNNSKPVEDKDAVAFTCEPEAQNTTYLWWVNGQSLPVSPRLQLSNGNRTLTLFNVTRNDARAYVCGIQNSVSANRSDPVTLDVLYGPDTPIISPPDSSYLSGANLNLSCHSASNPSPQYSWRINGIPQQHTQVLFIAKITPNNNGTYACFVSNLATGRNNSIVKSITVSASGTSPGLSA

Assay [4] deals with T4, Human CEACAM5 I80V V83A I112V I113T (human, UniProt P06731 35-685, limits assumed).
T4 chain: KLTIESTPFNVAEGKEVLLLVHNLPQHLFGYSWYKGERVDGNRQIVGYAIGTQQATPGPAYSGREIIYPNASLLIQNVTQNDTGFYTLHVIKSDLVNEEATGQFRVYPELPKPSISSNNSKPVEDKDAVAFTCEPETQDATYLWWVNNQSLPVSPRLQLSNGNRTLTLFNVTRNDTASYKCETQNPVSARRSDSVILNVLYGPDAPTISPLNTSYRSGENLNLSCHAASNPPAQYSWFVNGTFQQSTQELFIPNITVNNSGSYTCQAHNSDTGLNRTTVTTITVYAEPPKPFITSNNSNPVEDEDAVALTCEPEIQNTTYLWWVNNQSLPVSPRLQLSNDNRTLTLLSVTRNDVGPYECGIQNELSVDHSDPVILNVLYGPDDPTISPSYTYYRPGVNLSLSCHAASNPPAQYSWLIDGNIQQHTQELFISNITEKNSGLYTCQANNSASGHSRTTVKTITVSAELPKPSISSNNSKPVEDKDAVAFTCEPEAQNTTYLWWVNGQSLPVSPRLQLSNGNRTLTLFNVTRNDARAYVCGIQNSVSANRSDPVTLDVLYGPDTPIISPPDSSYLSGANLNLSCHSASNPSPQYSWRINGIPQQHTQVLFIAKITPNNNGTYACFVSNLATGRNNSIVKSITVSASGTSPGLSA

B1: AB0466 F3' CEACAM5 TriNKET (bispecific antibody, human IgG1, kappa)
chain: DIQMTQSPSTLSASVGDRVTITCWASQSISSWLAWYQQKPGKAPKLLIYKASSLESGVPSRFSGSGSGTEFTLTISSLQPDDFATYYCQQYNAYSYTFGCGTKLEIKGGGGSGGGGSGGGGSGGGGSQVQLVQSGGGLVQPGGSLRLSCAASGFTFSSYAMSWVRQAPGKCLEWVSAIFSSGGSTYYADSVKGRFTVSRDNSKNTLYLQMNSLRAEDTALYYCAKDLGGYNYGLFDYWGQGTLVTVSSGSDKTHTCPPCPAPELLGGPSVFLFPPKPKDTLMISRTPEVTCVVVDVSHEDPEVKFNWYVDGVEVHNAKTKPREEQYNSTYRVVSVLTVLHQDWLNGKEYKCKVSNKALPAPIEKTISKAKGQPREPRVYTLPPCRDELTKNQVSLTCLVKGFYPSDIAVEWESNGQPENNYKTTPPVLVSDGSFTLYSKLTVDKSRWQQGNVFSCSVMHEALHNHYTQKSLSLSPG
heavy: EVQLVESGGGLVKPGGSLRLSCAASGFTFSSYSMNWVRQAPGKGLEWVSSISSSSSYIYYADSVKGRFTISRDNAKNSLYLQMNSLRAEDTAVYYCARGAPIGAAAGWFDPWGQGTLVTVSSASTKGPSVFPLAPSSKSTSGGTAALGCLVKDYFPEPVTVSWNSGALTSGVHTFPAVLQSSGLYSLSSVVTVPSSSLGTQTYICNVNHKPSNTKVDKKVEPKSCDKTHTCPPCPAPELLGGPSVFLFPPKPKDTLMISRTPEVTCVVVDVSHEDPEVKFNWYVDGVEVHNAKTKPREEQYNSTYRVVSVLTVLHQDWLNGKEYKCKVSNKALPAPIEKTISKAKGQPREPQVCTLPPSRDELTENQVSLTCLVKGFYPSDIAVEWESNGQPENNYKTTPPVLDSDGSFFLYSWLTVDKSRWQQGNVFSCSVMHEALHNHYTQKSLSLSPG
light: DIQMTQSPSSVSASVGDRVTITCRASQGISSWLAWYQQKPGKAPKLLIYAASSLQSGVPSRFSGSGSGTDFTLTISSLQPEDFATYYCQQGVSFPRTFGGGTKVEIKRTVAAPSVFIFPPSDEQLKSGTASVVCLLNNFYPREAKVQWKVDNALQSGNSQESVTEQDSKDSTYSLSSTLTLSKADYEKHKVYACEVTHQGLSSPVTKSFNRGEC
As a reminder, the Kd is the concentration at which binding is half-saturated. Low values mean a tighter complex, high ones a looser complex. In general, kon refers to the second-order rate constant of association. Turning to B1, the equilibrium dissociation constant (Kd) in assay [1] was 66 nM; in assay [2], 8.4 nM; in assay [3], 6.3 nM; in assay [4] it was 61 nM. The on-rate constant (kon) in assay [1] worked out at 140000 M⁻¹ s⁻¹; in assay [2], 160000 M⁻¹ s⁻¹; in assay [3], 220000 M⁻¹ s⁻¹; in assay [4], 590000 M⁻¹ s⁻¹.

B2: AB0621 F3' CEACAM5 TriNKET (bispecific antibody, human IgG1, kappa)
chain: DIVMTQSPDSLAVSLGERATINCKSSHSLLYGNFQNNYLAWYQQKPGQPPKLLIYWASTRESGVPDRFSGSGSGTDFTLTISSLQAEDVAVYYCQQYYSYPYTFGCGTKLEIKGGGGSGGGGSGGGGSGGGGSQVQLVQSGAEVKKPGASVKVSCKASGYTFTAYTIHWVRQAPGQCLEWMGYINPSSGYTEYNQKFKDRTTLTADTSISTAYMELSRLRSDDTAVYYCTREGGLLWFDYWGQGTLVTVSSGSDKTHTCPPCPAPELLGGPSVFLFPPKPKDTLMISRTPEVTCVVVDVSHEDPEVKFNWYVDGVEVHNAKTKPREEQYNSTYRVVSVLTVLHQDWLNGKEYKCKVSNKALPAPIEKTISKAKGQPREPRVYTLPPCRDELTKNQVSLTCLVKGFYPSDIAVEWESNGQPENNYKTTPPVLVSDGSFTLYSKLTVDKSRWQQGNVFSCSVMHEALHNHYTQKSLSLSPG
heavy: EVQLVESGGGLVKPGGSLRLSCAASGFTFSSYSMNWVRQAPGKGLEWVSSISSSSSYIYYADSVKGRFTISRDNAKNSLYLQMNSLRAEDTAVYYCARGAPIGAAAGWFDPWGQGTLVTVSSASTKGPSVFPLAPSSKSTSGGTAALGCLVKDYFPEPVTVSWNSGALTSGVHTFPAVLQSSGLYSLSSVVTVPSSSLGTQTYICNVNHKPSNTKVDKKVEPKSCDKTHTCPPCPAPELLGGPSVFLFPPKPKDTLMISRTPEVTCVVVDVSHEDPEVKFNWYVDGVEVHNAKTKPREEQYNSTYRVVSVLTVLHQDWLNGKEYKCKVSNKALPAPIEKTISKAKGQPREPQVCTLPPSRDELTENQVSLTCLVKGFYPSDIAVEWESNGQPENNYKTTPPVLDSDGSFFLYSWLTVDKSRWQQGNVFSCSVMHEALHNHYTQKSLSLSPG
light: DIQMTQSPSSVSASVGDRVTITCRASQGISSWLAWYQQKPGKAPKLLIYAASSLQSGVPSRFSGSGSGTDFTLTISSLQPEDFATYYCQQGVSFPRTFGGGTKVEIKRTVAAPSVFIFPPSDEQLKSGTASVVCLLNNFYPREAKVQWKVDNALQSGNSQESVTEQDSKDSTYSLSSTLTLSKADYEKHKVYACEVTHQGLSSPVTKSFNRGEC
With B2, the equilibrium dissociation constant (Kd) in assay [1] is 34 nM; in assay [2], 29 nM; in assay [3] it was 19 nM; in assay [4] it was 22 nM. Further, the on-rate constant (kon) in assay [1] amounted to 44000 M⁻¹ s⁻¹; in assay [2], 47000 M⁻¹ s⁻¹; in assay [3], 86000 M⁻¹ s⁻¹; in assay [4], 64000 M⁻¹ s⁻¹.

B3: AB0411 F3' CEACAM5 TriNKET (bispecific antibody, human IgG1, kappa)
chain: DIQLTQSPATLSVSPGERATLSCRASQSVSSSYLAWYQQKPGQAPRLLIYGASSRATGIPDRFSGSGSGTDFTLTISRLEPEDFAVYYCQQYNNWPLTFGCGTKVEIKGGGGSGGGGSGGGGSGGGGSQVQLVQSGGGLVQPGGSLRLSCAASGFTFTSYAMSWVRQAPGKCLEWVSAISGTGDSTFYADSVKGRFTFSRDNSKNTLYLQMNSLRAEDTAVYYCAKDLGWLQYGLFDYWGQGTLVTVSSGSDKTHTCPPCPAPELLGGPSVFLFPPKPKDTLMISRTPEVTCVVVDVSHEDPEVKFNWYVDGVEVHNAKTKPREEQYNSTYRVVSVLTVLHQDWLNGKEYKCKVSNKALPAPIEKTISKAKGQPREPRVYTLPPCRDELTKNQVSLTCLVKGFYPSDIAVEWESNGQPENNYKTTPPVLVSDGSFTLYSKLTVDKSRWQQGNVFSCSVMHEALHNHYTQKSLSLSPG
heavy: EVQLVESGGGLVKPGGSLRLSCAASGFTFSSYSMNWVRQAPGKGLEWVSSISSSSSYIYYADSVKGRFTISRDNAKNSLYLQMNSLRAEDTAVYYCARGAPIGAAAGWFDPWGQGTLVTVSSASTKGPSVFPLAPSSKSTSGGTAALGCLVKDYFPEPVTVSWNSGALTSGVHTFPAVLQSSGLYSLSSVVTVPSSSLGTQTYICNVNHKPSNTKVDKKVEPKSCDKTHTCPPCPAPELLGGPSVFLFPPKPKDTLMISRTPEVTCVVVDVSHEDPEVKFNWYVDGVEVHNAKTKPREEQYNSTYRVVSVLTVLHQDWLNGKEYKCKVSNKALPAPIEKTISKAKGQPREPQVCTLPPSRDELTENQVSLTCLVKGFYPSDIAVEWESNGQPENNYKTTPPVLDSDGSFFLYSWLTVDKSRWQQGNVFSCSVMHEALHNHYTQKSLSLSPG
light: DIQMTQSPSSVSASVGDRVTITCRASQGISSWLAWYQQKPGKAPKLLIYAASSLQSGVPSRFSGSGSGTDFTLTISSLQPEDFATYYCQQGVSFPRTFGGGTKVEIKRTVAAPSVFIFPPSDEQLKSGTASVVCLLNNFYPREAKVQWKVDNALQSGNSQESVTEQDSKDSTYSLSSTLTLSKADYEKHKVYACEVTHQGLSSPVTKSFNRGEC
For the molecule B3, the Kd stood at 8.2 nM in assay [1], 1.9 nM in assay [2], 1.4 nM in assay [3] and 6.4 nM in assay [4]. Moreover, the kon in assay [1] is 180000 M⁻¹ s⁻¹; in assay [2], 210000 M⁻¹ s⁻¹; in assay [3], 270000 M⁻¹ s⁻¹; in assay [4], 260000 M⁻¹ s⁻¹.

For the origin of these results see patent US20240124607A1 (Merck Sharp & Dohme, published 2024).
